Experimental data from publication doi:10.1101/2023.01.25.525455 (bioRxiv, 2023).
Several values for one entry are separate records, joined by “and”; a condition that tells them apart may be missing. Equal values may be shown once.

B1: CCDC22-CCDC93 CC1-CC2 complex (CCDC22(325-485) + CCDC93(310-488)), wild type (complex)
chain 1: VTWAAQEQELESLREQLEGVNRSIEEVEADMKTLGVSFVQAESECRHSKLSTAEREQALRLKSRAVELLPDGTANLAKLQLVVENSAQRVIHLAGQWEKHRVPLLAEYRHLRKLQDCRELESSRRLAEIQELHQSVRAAAEEARRKEEVYKQLMSELETLP
chain 2: GTSQLHRRKVISLNKQIAQKTKHLEELRASHTSLQARYNEAKKTLTELKTYSEKLDKEQAALEKIESKADPSILQNLRALVAMNENLKSQEQEFKAHCREEMTRLQQEIENLKAERAPRGDEKTLSSGEPPGTLTSAMTHDEDLDRRYNMEKEKLYKIRLLQARRNREIAILHRKIDEV

How the values were obtained:
recombinant DENND10 = recombinant DENND10 (human, UniProt Q8TCE6 1-357); experiment: ITC
Chain of recombinant DENND10 (Q8TCE6 whole entry): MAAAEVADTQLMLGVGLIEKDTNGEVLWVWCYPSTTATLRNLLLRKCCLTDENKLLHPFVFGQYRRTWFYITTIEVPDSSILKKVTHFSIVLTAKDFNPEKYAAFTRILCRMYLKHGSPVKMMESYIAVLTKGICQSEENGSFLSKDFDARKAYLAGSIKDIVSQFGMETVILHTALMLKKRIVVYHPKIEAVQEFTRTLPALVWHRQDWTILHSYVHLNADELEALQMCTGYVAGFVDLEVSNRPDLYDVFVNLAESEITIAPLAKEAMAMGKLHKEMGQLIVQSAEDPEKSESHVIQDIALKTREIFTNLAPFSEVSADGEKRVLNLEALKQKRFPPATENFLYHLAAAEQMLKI

purified VPS29 = purified VPS29 (human, UniProt Q9UBQ0 1-182); experiment: ITC

Row | Binder | Kd (recombinant DENND10) [µM] | Kd (purified VPS29)
1 | B1 | 0.028 ± 0.006 | 
2 | EFGDYHPLKP [VPS35L^28-37 peptide] |  | 6.8 µM
3 | EFASCRLEAVPLEFGDYHPLKPI [synthetic VPS35L peptide (residues Glu16-Ile38)] |  | 1.8 µM and 1.87 µM
